Measurements published in paper PMC11532494 (Nature Communications, 2024).

Molecular target: AcuC (acetoin-utilization protein C) of Bacillus subtilis (Bacillus subtilis) (UniProt P39067)
Test: dose-response enzyme inhibition (Fluor-de-Lys assay)

Chain of AcuC (acetoin-utilization protein C) of Bacillus subtilis (Bacillus subtilis) (P39067 whole entry): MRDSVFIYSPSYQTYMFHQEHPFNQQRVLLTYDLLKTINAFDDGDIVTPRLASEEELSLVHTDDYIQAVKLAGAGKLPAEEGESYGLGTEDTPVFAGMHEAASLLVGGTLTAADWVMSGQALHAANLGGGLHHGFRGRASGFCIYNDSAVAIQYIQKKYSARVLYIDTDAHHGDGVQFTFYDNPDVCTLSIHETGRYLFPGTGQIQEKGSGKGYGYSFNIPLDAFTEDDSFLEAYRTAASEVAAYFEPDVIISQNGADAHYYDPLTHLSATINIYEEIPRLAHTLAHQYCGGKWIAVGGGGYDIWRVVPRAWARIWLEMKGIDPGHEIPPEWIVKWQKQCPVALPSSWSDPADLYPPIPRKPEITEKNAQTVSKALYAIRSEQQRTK

Substance: apicidin A (peptide)
- Ki: < 72 nM
